Source: US20210347852A1 (Regeneron, published 2021)
Substitutions are numbered along the chain they refer to.

T1: Human VEGF121 (R&D SYSTEMS Cat #4644-VS) (human, UniProt P15692-9 27-147)
T1 sequence (looked up): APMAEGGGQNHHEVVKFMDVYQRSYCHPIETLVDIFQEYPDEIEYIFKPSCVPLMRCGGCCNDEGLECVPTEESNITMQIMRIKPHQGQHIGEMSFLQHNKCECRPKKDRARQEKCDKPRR

B1: REGN10187, VEGF Trap hIgG4 stealth Fc (Fc fusion)
chain: SDTGRPFVEMYSEIPEIIHMTEGRELVIPCRVTSPNITVTLKKFPLDTLIPDGKRIIWDSRKGFIISNATYKEIGLLTCEATVNGHLYKTNYLTHRQTNTIIDVVLSPSHGIELSVGEKLVLNCTARTELNVGIDFNWEYPSSKHQHKKLVNRDLKTQSGSEMKKFLSTLTIDGVTRSDQGLYTCAASSGLMTKKNSTFVRVHEKESKYGPPCPPCPAPPVAGPSVFLFPPKPKDTLMISRTPEVTCVVVDVSQEDPEVQFNWYVDGVEVHNAKTKPREEQFNSTYRVVSVLTVLHQDWLNGKEYKCKVSNKGLPSSIEKTISKAKGQPREPQVYTLPPSQEEMTKNQVSLTCLVKGFYPSDIAVEWESNGQPENNYKTTPPVLDSDGSFFLYSRLTVDKSRWQEGNVFSCSVMHEALHNHYTQKSLSLSLGK
B2: REGN10105, VEGF mini-trap hIgG2 Fc w/2Cys (other)
chain: SDTGRPFVEMYSEIPEIIHMTEGRELVIPCRVTSPNITVTLKKFPLDTLIPDGKRIIWDSRKGFIISNATYKEIGLLTCEATVNGHLYKTNYLTHRQTNTIIDVVLSPSHGIELSVGEKLVLNCTARTELNVGIDFNWEYPSSKHQHKKLVNRDLKTQSGSEMKKFLSTLTIDGVTRSDQGLYTCAASSGLMTKKNSTFVRVHEKVECPPCPAPPVA
notes: IdeS cleaved from the IgG2 trap; they are kept as one molecule here; also called REGN10105-L3
B3: REGN10103, VEGF mini-trap hIgG2 Fc w/4Cys (other)
chain: SDTGRPFVEMYSEIPEIIHMTEGRELVIPCRVTSPNITVTLKKFPLDTLIPDGKRIIWDSRKGFIISNATYKEIGLLTCEATVNGHLYKTNYLTHRQTNTIIDVVLSPSHGIELSVGEKLVLNCTARTELNVGIDFNWEYPSSKHQHKKLVNRDLKTQSGSEMKKFLSTLTIDGVTRSDQGLYTCAASSGLMTKKNSTFVRVHEKERKCCVECPPCPAPPVA
B4: mREGN10187, VEGF mini-trap hIgG4 stealth Fc (other)
chain: B3 chain with R207S, C209Y, C210G, V211P, E212P
notes: IdeS cleaved from REGN10187; also called Mini-REGN10187
B5: mREGN10104, VEGF mini-trap hIgG1 stealth Fc (other)
chain: SDTGRPFVEMYSEIPEIIHMTEGRELVIPCRVTSPNITVTLKKFPLDTLIPDGKRIIWDSRKGFIISNATYKEIGLLTCEATVNGHLYKTNYLTHRQTNTIIDVVLSPSHGIELSVGEKLVLNCTARTELNVGIDFNWEYPSSKHQHKKLVNRDLKTQSGSEMKKFLSTLTIDGVTRSDQGLYTCAASSGLMTKKNSTFVRVHEKDKTHTCPPCPAPPVA
notes: IdeS cleaved from REGN10104; also called Mini-REGN10104
B6: REGN10104, VEGF Trap hIgG1 stealth Fc (Fc fusion)
chain: SDTGRPFVEMYSEIPEIIHMTEGRELVIPCRVTSPNITVTLKKFPLDTLIPDGKRIIWDSRKGFIISNATYKEIGLLTCEATVNGHLYKTNYLTHRQTNTIIDVVLSPSHGIELSVGEKLVLNCTARTELNVGIDFNWEYPSSKHQHKKLVNRDLKTQSGSEMKKFLSTLTIDGVTRSDQGLYTCAASSGLMTKKNSTFVRVHEKDKTHTCPPCPAPPVAGPSVFLFPPKPKDTLMISRTPEVTCVVVDVSQEDPEVQFNWYVDGVEVHNAKTKPREEQFNSTYRVVSVLTVLHQDWLNGKEYKCKVSNKGLPSSIEKTISKAKGQPREPQVYTLPPSRDELTKNQVSLTCLVKGFYPSDIAVEWESNGQPENNYKTTPPVLDSDGSFFLYSKLTVDKSRWQQGNVFSCSVMHEALHNHYTQKSLSLSPGK
B7: REGN11095, VEGF mini-trap hIgG1 Mut GGGL Fc (other)
chain: SDTGRPFVEMYSEIPEIIHMTEGRELVIPCRVTSPNITVTLKKFPLDTLIPDGKRIIWDSRKGFIISNATYKEIGLLTCEATVNGHLYKTNYLTHRQTNTIIDVVLSPSHGIELSVGEKLVLNCTARTELNVGIDFNWEYPSSKHQHKKLVNRDLKTQSGSEMKKFLSTLTIDGVTRSDQGLYTCAASSGLMTKKNSTFVRVHEKDKTHTCPPCPGGGLLG
notes: also called Mini-REGN10514; mREGN10514
B8: REGN10105 (Alexa 488) (other)
chain: B2 chain
modifications: tagged with Alexa Fluor 488 (AF488) through amine conjugation
notes: also called REGN10105 AF488
B9: REGN11095 (Alexa 488) (other)
chain: B7 chain
modifications: tagged with Alexa Fluor 488 (AF488) through amine conjugation
notes: also called REGN11095 AF488

What follows are binders tested against T1, Human VEGF121 (R&D SYSTEMS Cat #4644-VS) (assay: cell-based or functional assay).
In the case of B1, the “IC50, Inhibition of 20 pM VEGF121, VEGFR1 assay (luciferase)” value (“IC50, Inhibition of 20 pM VEGF121” below) is reported as 1.25e-11 M. For B2, the “IC50, Inhibition of 20 pM VEGF121” value was 1.68e-11 M. In the case of B3, the “IC50, Inhibition of 20 pM VEGF121” value is reported as 2.11e-11 M. For B4, the “IC50, Inhibition of 20 pM VEGF121” value was 1.32e-11 M. With B5 the “IC50, Inhibition of 20 pM VEGF121” value was 1.34e-11 M. For B6, the “IC50, Inhibition of 20 pM VEGF121” value was 1.91e-11 M.

Each binder was assayed against T2, Human VEGF165 (REGN110) (human, UniProt P15692-4 27-191) (assay: cell-based or functional assay).
In the case of B2, the “IC50, VEGFR1 40 pM VEGF165 (REGN110) (luciferase)” value is reported as 1.06e-11 M. For B7, the “IC50, VEGFR1 40 pM VEGF165 (REGN110) (luciferase)” value was 2.19e-11 M.

Molecular target: T1, Human VEGF121 (R&D SYSTEMS Cat #4644-VS)
Experiment: cell-based or functional assay
Remark: another data set of the same source
For B2, the “IC50, VEGFR1 40 pM R&D VEGF121 (luciferase)” value was 1.74e-11 M. For B7, the “IC50, VEGFR1 40 pM R&D VEGF121 (luciferase)” value was 2.16e-11 M.

Molecular target: T1, Human VEGF121 (R&D SYSTEMS Cat #4644-VS)
Experiment: cell-based or functional assay
Remark: another data set of the same source
In the case of B5, the “IC50 (read off the curve); NFkB-luciferase reporter (RLU), 293/D9/VEGFR1 cells, VEGF121 constant 40 pM [B]” value is reported as about 1e-11 M. In the case of B6, the “IC50 (read off the curve); NFkB-luciferase reporter (RLU), 293/D9/VEGFR1 cells, VEGF121 constant 40 pM [B]” value is reported as about 2e-11 M.

Molecular target: T1, Human VEGF121 (R&D SYSTEMS Cat #4644-VS)
Experiment: cell-based or functional assay
Remark: another data set of the same source
In the case of B1, the “IC50 (read off the curve); NFkB-luciferase reporter (RLU), 293/D9/VEGFR1 cells, VEGF121 constant 40 pM [D]” value is reported as about 1e-11 M. With B4 the “IC50 (read off the curve); NFkB-luciferase reporter (RLU), 293/D9/VEGFR1 cells, VEGF121 constant 40 pM [D]” value was about 1e-11 M.

Molecular target: T1, Human VEGF121 (R&D SYSTEMS Cat #4644-VS)
Experiment: cell-based or functional assay
Remark: another data set of the same source
With B2 the “IC50 (read off the curve); NFkB-luciferase reporter (RLU), 293/D9/VEGFR1 cells, VEGF121 constant 40 pM [E]” value was about 2e-11 M. B3 was tested, and the “IC50 (read off the curve); NFkB-luciferase reporter (RLU), 293/D9/VEGFR1 cells, VEGF121 constant 40 pM [E]” value was about 2e-11 M.

What follows are binders tested against T2, Human VEGF165 (REGN110) (assay: SPR, 25C, trap captured by REGN18, hVEGF165 injected).
Method: (§1) Equilibrium dissociation constants (KD values) for human VEGF₁₆₅ binding to various purified VEGF mini-trap constructs were determined using a real-time surface plasmon resonance biosensor using a Biacore 3000 instrument. All binding studies were performed in 10 mM HEPES, 150 mM NaCl, 3 mM EDTA, and 0.05% v/v Surfactant Tween-20; pH 7.4 (HBS-ET) running buffer at 25° C. The Biacore sensor surface was first derivatized by amine coupling with a monoclonal mouse anti-VEGFR1 antibody (REGN18) to capture VEGF mini-trap constructs. Binding studies were performed on the following human VEGF reagents: human VEGF₁₆₅. […] Dissociation of bound VEGF₁₆₅ reagent from VEGF mini-trap constructs was monitored for 60 minutes in HBS-ET running buffer. Kinetic association (ka) and dissociation (kd) rate constants were determined by fitting the real-time sensorgrams to a 1:1 binding model using Scrubber 2.0c curve fitting software. Binding dissociation equilibrium constants (KD) and dissociative half-lives (t1/2) were calculated from the kinetic rate constants as: […]
With B2 the “2 nM VEGF165 Bound (RU)” value was 20.4 RU, the Kd was 1.08 pM and the koff was at most 1e-05 s⁻¹. The kon was 9.3e+06 M⁻¹ s⁻¹ and the “t½” value was at least 19.2 h. B8 was tested, and the “2 nM VEGF165 Bound (RU)” value was 18 RU, the Kd was at most 0.74 pM and the koff was at most 1e-05 s⁻¹. The kon was 1.36e+07 M⁻¹ s⁻¹ and the “t½” value was at least 19.2 h. In the case of B7, the “2 nM VEGF165 Bound (RU)” value is reported as 19.4 RU, the Kd is reported as at most 0.86 pM and the koff is reported as at most 1e-05 s⁻¹. For the same binder, the kon was 1.16e+07 M⁻¹ s⁻¹ and the “t½” value was at least 19.2 h. With B9 the “2 nM VEGF165 Bound (RU)” value was 14.9 RU, the Kd was at most 0.865 pM and the koff was at most 1e-05 s⁻¹. The kon was 1.16e+07 M⁻¹ s⁻¹ and the “t½” value was at least 19.2 h.

Each binder was assayed against T2, Human VEGF165 (REGN110) (assay: SPR (Biacore 3000), 25C, trap captured by REGN18, hVEGF165 injected).
Method: as §1
B1 was tested, and the “2.5 nM hVEGF165 Bound (RU)” value was 10.5 RU, the Kd was 1.82 pM and the koff was 1.73e-05 s⁻¹. The kon was 9.5e+06 M⁻¹ s⁻¹ and the “t½” value was 11.1 h. For B2, the “2.5 nM hVEGF165 Bound (RU)” value was 10.5 RU, the Kd was 1.89 pM and the koff was 1.44e-05 s⁻¹. For the same binder, the kon was 7.62e+06 M⁻¹ s⁻¹ and the “t½” value was 13.3 h. For B3, the “2.5 nM hVEGF165 Bound (RU)” value was 14.8 RU, the Kd was at most 1.08 pM and the koff was at most 1e-05 s⁻¹. The kon was 9.3e+06 M⁻¹ s⁻¹ and the “t½” value was at least 19.2 h. In the case of B4, the “2.5 nM hVEGF165 Bound (RU)” value is reported as 14.3 RU, the Kd is reported as at most 1.37 pM and the koff is reported as at most 1e-05 s⁻¹. The kon was 7.3e+06 M⁻¹ s⁻¹ and the “t½” value was at least 19.2 h. With B5 the “2.5 nM hVEGF165 Bound (RU)” value was 12.2 RU, the Kd was 1.78 pM and the koff was 1.7e-05 s⁻¹. The kon was 9.5e+06 M⁻¹ s⁻¹ and the “t½” value was 11.3 h. For B6, the “2.5 nM hVEGF165 Bound (RU)” value was 7.3 RU, the Kd was 1.1 pM and the koff was 1.01e-05 s⁻¹. The kon was 9.2e+06 M⁻¹ s⁻¹ and the “t½” value was 19.1 h.
